Measured values reported in patent publication US20220331394A1 (SUSAVION BIOSCIENCES, published 2022).
Values belong to the binder of their own block, whether it stands above or below them. No end group written: not given here.

Columns and labels:
[1] = target: T1, DC-SIGN (human, UniProt Q9NNX6 62-404, limits assumed); assay: solid-phase binding assay with recombinant receptor
T1 construct: construct not described; also called CD209; dendritic cell-specific intercellular adhesion molecule (ICAM)-3 grabbing non-integrin
T1 sequence (looked up): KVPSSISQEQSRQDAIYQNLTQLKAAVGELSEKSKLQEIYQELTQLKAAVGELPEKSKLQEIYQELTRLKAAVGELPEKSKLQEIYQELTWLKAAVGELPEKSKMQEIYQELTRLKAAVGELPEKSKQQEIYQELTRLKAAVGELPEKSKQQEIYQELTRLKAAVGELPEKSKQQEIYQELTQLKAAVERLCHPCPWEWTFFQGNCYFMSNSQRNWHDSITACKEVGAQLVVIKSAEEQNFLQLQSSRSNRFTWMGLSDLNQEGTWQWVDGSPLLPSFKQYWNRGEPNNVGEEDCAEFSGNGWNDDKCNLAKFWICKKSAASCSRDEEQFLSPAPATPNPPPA
Experimental: (§1) Binding Assays Solid-phase binding assays were performed with streptavidin-, protein A/G-, or Nickel-coated microtiter plates (Pierce). His-tagged or Fc-fusion recombinant receptors (R&D Systems, Minneapolis, Minn.) were reconstituted in PBS. Sufficient receptors were added to wells to saturate the coating. His-tagged receptors were added to each well at a 5-fold excess over the stated capacity of the Ni coating to minimize non-specific binding of the peptide. Wells were washed three times with binding buffer (25 mM Tris HCl, pH 7.4, 150 mM NaCl, 0.05% Tween-20) to remove unbound receptor and 50 μL of 2 μM biotinylated peptide in binding buffer were added and allowed to incubate for 1 h. The wells were washed four times with binding buffer and then incubated with 50 μL of 1 μg/mL streptavidin conjugated with peroxidase (Sigma-Aldrich) for 1 h. The wells were washed five times with binding buffer and 50 μL of peroxidase substrate (1-Step™ Ultra TMB, Pierce) were added. After several minutes to allow color development, the reaction was stopped with 50 μL 1 M H₃PO₄ and absorbance was measured at 450 nm. Bound streptavidin was quantitated by the specific activity of peroxidase (absorbance/ng protein conjugate/min) under the conditions of the assay.
(§2) Solid-phase binding assays were performed with recombinant human receptors. Three variations of the binding assay were used in this study, all of which allowed the arms of the tetravalent peptide to have full flexibility. (i) Biotinylated peptide was bound in microtiter wells coated with streptavidin and incubated with recombinant human receptors. After extensive washing, the bound receptor was measured by peroxidase conjugated to a receptor-specific antibody. (ii) The extracellular domains of receptors, which were fused with the Fc domain of immunoglobulin IgG, were bound in wells coated with protein A/G. Biotinylated peptide was incubated with the receptors and, after extensive washing, bound peptide was measured with streptavidin conjugated with peroxidase. Or (iii), recombinant receptors with a poly-His tag were bound to Nickel-coated wells and incubated with biotinylated peptide. svL4 and sv6D contain His residues (FIGS. 1A, 1C) and can bind to the Ni coating, which was minimized by adding sufficient poly-His-tagged receptor to saturate the Ni coating.

[2] = target: T2, CLEC9A (human, UniProt Q6UXN8 57-241); assay: as above
T2 construct: construct not described
T2 sequence (Q6UXN8 57-241 limits assumed): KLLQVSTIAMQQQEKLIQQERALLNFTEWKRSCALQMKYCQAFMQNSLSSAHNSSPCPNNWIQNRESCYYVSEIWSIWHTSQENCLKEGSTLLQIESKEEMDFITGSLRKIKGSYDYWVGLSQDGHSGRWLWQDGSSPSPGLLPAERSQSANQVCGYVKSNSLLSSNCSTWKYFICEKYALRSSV
Experimental: as §1, §2

[3] = target: T3, CD44 (human, UniProt P16070 21-220, limits assumed); assay: as above
T3 construct: construct not described; also called receptor for hyaluronic acid
T3 sequence (P16070 21-220 limits assumed): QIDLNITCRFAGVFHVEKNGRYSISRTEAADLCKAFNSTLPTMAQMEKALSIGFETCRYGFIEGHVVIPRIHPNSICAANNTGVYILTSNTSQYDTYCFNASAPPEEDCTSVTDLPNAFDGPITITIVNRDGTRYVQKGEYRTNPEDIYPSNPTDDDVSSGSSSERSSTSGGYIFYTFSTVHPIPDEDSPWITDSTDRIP
Experimental: as §1, §2

[4] = target: T4, Siglec-1 (human, UniProt Q9BZZ2 20-1641, limits assumed); assay: as above
T4 construct: construct not described
T4 sequence (Q9BZZ2 20-1641 limits assumed): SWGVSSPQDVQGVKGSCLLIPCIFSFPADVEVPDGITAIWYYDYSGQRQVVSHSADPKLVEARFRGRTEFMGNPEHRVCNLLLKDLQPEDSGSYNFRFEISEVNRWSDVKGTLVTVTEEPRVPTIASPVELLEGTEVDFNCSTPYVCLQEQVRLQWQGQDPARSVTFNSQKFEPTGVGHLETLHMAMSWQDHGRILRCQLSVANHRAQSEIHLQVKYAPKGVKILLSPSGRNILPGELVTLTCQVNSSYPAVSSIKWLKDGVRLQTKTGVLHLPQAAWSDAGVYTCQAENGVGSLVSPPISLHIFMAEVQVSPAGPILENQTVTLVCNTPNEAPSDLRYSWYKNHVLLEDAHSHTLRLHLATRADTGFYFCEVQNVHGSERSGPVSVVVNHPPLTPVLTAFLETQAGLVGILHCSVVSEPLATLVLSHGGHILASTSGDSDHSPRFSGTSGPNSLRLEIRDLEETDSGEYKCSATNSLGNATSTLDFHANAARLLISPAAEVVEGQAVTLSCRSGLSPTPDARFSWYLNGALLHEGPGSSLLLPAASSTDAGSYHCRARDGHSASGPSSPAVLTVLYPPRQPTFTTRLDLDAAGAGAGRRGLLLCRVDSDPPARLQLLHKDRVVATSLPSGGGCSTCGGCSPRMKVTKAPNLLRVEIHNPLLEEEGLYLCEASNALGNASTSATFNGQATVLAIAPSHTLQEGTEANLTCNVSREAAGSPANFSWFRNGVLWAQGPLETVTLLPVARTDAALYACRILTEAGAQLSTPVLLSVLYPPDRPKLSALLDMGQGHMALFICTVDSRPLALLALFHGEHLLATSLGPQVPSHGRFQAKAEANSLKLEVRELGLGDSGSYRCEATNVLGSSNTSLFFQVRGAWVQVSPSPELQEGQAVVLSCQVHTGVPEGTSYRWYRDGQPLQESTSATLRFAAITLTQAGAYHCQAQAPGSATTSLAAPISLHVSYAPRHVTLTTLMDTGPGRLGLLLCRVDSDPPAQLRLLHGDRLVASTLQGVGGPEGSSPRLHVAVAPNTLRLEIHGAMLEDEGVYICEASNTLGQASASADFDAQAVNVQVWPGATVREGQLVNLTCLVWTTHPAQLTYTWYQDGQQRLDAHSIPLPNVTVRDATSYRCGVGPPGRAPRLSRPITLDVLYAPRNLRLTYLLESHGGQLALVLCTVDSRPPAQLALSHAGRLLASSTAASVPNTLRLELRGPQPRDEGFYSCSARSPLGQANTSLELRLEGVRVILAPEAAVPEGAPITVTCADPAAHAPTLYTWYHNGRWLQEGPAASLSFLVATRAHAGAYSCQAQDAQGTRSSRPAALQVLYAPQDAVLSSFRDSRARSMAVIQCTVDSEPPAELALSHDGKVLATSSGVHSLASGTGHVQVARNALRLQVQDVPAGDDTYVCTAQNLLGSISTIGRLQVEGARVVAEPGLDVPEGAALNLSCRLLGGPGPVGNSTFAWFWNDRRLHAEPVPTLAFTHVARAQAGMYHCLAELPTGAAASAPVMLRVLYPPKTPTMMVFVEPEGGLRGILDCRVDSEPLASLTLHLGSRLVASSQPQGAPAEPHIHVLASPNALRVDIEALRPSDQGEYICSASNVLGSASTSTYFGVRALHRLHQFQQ
Experimental: as §1, §2

[5] = target: T5, IL-4R (human, UniProt P24394 26-232, limits assumed); assay: as above
T5 construct: construct not described; also called receptor for IL-4
T5 sequence (looked up): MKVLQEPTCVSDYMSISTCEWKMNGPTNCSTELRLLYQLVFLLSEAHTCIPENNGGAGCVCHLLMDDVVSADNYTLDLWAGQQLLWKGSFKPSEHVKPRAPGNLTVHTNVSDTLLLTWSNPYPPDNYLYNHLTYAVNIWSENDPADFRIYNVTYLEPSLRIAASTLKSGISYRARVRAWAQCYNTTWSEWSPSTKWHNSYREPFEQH
Experimental: as §1, §2

[6] = target: T6, recombinant human asialoglycoprotein receptor 1 (ASGPR-1) (human, UniProt P07306 62-291); assay: solid-phase binding assay, double-reciprocal plot of binding vs. peptide concentration
T6 construct: extracellular domain; Bought recombinant receptor; also called Ashwell-Morell receptor; CLEC4H1
T6 sequence (looked up): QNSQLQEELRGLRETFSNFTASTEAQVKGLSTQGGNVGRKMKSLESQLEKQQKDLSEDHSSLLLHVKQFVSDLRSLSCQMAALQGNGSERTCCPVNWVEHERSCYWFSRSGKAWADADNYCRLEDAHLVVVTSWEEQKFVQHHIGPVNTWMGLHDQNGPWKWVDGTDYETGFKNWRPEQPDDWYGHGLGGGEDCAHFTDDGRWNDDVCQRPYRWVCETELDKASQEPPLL
Experimental: (§3) Binding was detected with streptavidin-peroxidase conjugate. Similar data were obtained in 2 experiments. (FIG. 3C) Inhibition by EGTA of binding of sv6D (pattern) or svL4 (solid) to CLEC10A and ASGPR-1, respectively. EGTA (1 mM) was added to the final concentrations indicated to assays. Retention of bound CLEC10A was determined by incubation with biotinylated anti-CLEC10A (goat IgG, R&D Systems) and detection with streptavidin-peroxidase conjugate (light grey circle). Similar data were obtained in 3 experiments. (FIG. 3D) Binding of svL4 and sv6D to human recombinant CLEC10A and ASGPR-1 as a function of concentration of peptide in the assay. The figure is representative of 4 separate assays.
as §1
(§4) Corresponding values for binding of svL4 to CLEC10A and ASGPR-1 of 0.24±0.04 μM and 0.21±0.03 μM, respectively, were obtained (FIG. 3D).

[7] = target: T7, recombinant human Ca2+-dependent lectin-type receptor family member 10A (CLEC10A) (human, UniProt Q8IUN9 61-316); assay: as above
T7 construct: extracellular domain; Bought recombinant receptor; also called CD301; macrophage galactose-type lectin
T7 sequence (looked up): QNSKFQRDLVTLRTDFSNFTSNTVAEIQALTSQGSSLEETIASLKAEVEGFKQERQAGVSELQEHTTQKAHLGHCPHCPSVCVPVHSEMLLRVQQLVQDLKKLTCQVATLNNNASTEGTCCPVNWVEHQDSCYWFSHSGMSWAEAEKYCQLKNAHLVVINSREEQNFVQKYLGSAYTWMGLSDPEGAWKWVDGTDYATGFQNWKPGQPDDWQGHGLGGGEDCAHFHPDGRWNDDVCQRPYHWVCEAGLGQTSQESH
Experimental: as §3, §1, §4

[8] = target: T8, recombinant rat CLEC10A (rat, UniProt P49301 59-306, limits assumed); assay: solid-phase competition with biotinylated GalNAc-PAA
T8 construct: construct not described; also called CLEC10A from rat
T8 sequence (looked up): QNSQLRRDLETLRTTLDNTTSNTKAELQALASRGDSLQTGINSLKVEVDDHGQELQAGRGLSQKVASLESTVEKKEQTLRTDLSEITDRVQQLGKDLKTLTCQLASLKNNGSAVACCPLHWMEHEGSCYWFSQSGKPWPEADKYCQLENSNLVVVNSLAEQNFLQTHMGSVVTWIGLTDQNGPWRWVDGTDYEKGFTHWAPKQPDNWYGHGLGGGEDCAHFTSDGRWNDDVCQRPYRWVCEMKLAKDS
Experimental: as §3, with “FIGS. 3A-3D. sv6D as a mimetic of GalNAc. (FIG. 3A) Inhibition by sv6D of binding of multivalent GalNAc-PAA (GlycoTech Corp., Frederick, Md.) to recombinant rat CLEC10A and human ASGPR-1. The reaction mixture included approximately 200 pmoles of biotinylated GalNc-PAA and increasing concentrations of peptide. The figure includes average values from 3 independent experiments. (FIG. 3B) Biotinylated sv6D or GalNAc-PAA were incubated with rabbit antiserum raised against the 6D sequence (NQHTPR) conjugated to keyhole limpet hemocyanin (KLH). Binding was” for “Binding was”
To further determine whether sv6D interacts with the actual sugar binding site, the ability of sv6D to compete with GalNAc-PAA for binding was assayed. […]

[9] = target: T6, recombinant human asialoglycoprotein …; assay: solid-phase binding assay with recombinant human receptor
Experimental: as §1, with “The wells were washed five times with binding buffer and 50 μL of peroxidase substrate (1-Step™ Ultra TMB, Pierce) were added.” left out
(§5) Solid-phase binding assays were performed with recombinant human receptors. […] After extensive washing, the bound receptor was measured by peroxidase conjugated to a receptor-specific antibody. […]

[10] = target: T7, recombinant human Ca2+-dependent …; assay: as above
Experimental: as §1, with “The wells were washed five times with binding buffer and 50 μL of peroxidase substrate (1-Step™ Ultra TMB, Pierce) were added.” left out
as §5

Kd [6]: 210 nM
Kd [7]: 240 nM
B1: svL4 (peptide)
peptide: VQATQSNQHTPRGGGS
modifications: also: tetravalent: four arms joined through GGGS linker to branched tri-lysine core, core C-terminus amide or biotinyl-lysinyl-amide
notes: the tie follows from svL4 being the 12-mer whose C-terminal 6-mer is sv6D (NQHTPR); also called tetravalent peptide svL4; full-length svL4
binding result [1]: no binding (tested: 2 µM biotinylated peptide)
binding result [2]: no binding (tested: 2 µM biotinylated peptide)
binding result [3]: no binding (tested: 2 µM biotinylated peptide)
binding result [4]: no binding (tested: 2 µM biotinylated peptide)
binding result [5]: no binding (tested: 2 µM biotinylated peptide)

binding result [8]: binds
Kd [6]: 120 nM
Kd [7]: 150 nM
B2: sv6D (peptide)
peptide: NQHTPRGGGS
modifications: also: tetravalent: four arms joined through GGGS linker to branched tri-lysine core, core C-terminus amide or biotinyl-lysinyl-amide
notes: Tetravalent branched construct: four arms NQHTPR + GGGS linker on a tri-lysine core; Biotinylated in solid-phase assays; also called tetravalent peptide sv6D; C-terminal half of svL4
binding result [1]: no binding (tested: 2 µM biotinylated peptide)
binding result [2]: no binding (tested: 2 µM biotinylated peptide)
binding result [3]: no binding (tested: 2 µM biotinylated peptide)
binding result [4]: no binding (tested: 2 µM biotinylated peptide)
binding result [5]: no binding (tested: 2 µM biotinylated peptide)

B3: svC1 (peptide)
peptide: VQATQSGGGS
modifications: also: arms on branched tri-lysine core as for svL4, biotinylated at C-terminus of core in binding assays
notes: also called N-terminal half of svL4
binding result [9]: no binding (tested: 2 µM biotinylated peptide)
binding result [10]: no binding (tested: 2 µM biotinylated peptide)
